The chains are these.
B3: BK polyomavirus major capsid protein VP1 (native infectious virion, Dunlop strain) (natural protein)
chain: MAPTKRKGECPGAAPKKPKEPVQVPKLLIKGGVEVLEVKTGVDAITEVECFLNPEMGDPDENLRGFSLKLSAENDFSSDSPERKMLPCYSTARIPLPNLNEDLTCGNLLMWEAVTVQTEVIGITSMLNLHAGSQKVHEHGGGKPIQGSNFHFFAVGGEPLEMQGVLMNYRSKYPDGTITPKNPTAQSQVMNTDHKAYLDKNNAYPVECWVPDPSRNENARYFGTFTGGENVPPVLHVTNTATTVLLDEQGVGPLCKADSLYVSAADICGLFTNSSGTQQWRGLARYFKIRLRKRSVKNPYPISFLLSDLINRRTQRVDGQPMYGMESQVEEVRVFDGTERLPGDPDMIRYIDKQGQLQTKML
notes: Major capsid protein VP1 of BK polyomavirus, Dunlop strain, as assembled in the native virion; Five copies form one penton; 72 pentons form the T = 7d capsid, with VP1 in six quasi-equivalent conformations; PDB 5FUA is a homology model of BK VP1 (built on SV40, PDB 1SVA) fitted into the virion map; also called BK VP1; BKPyV VP1; source: Vero cells transfected/infected with the BK Dunlop genome; …

The target in series [1] is BK polyomavirus major capsid protein VP1 (VP1-only virus-like particle) (BK polyomavirus) (UniProt P03088). Briefly: cryo-EM structure; purified VP1-only VLPs in buffer A supplemented with 50 mM CaCl2, vitrified; FEI Polara, K2 summit in super-resolution mode; icosahedral single-particle reconstruction in RELION, 9.1 Å.
Series [2] deals with B3. Briefly: cryo-EM structure; purified native BK virions in buffer A (10 mM HEPES pH 7.9, 1 mM CaCl2, 1 mM MgCl2, 5 mM KCl), vitrified; FEI Tecnai-F20, 200 kV, K2-Summit; icosahedral single-particle reconstruction in RELION, 7.6 Å. The settings on record: both partners purified.
Series [3] concerns the molecule itself. Described as above.

By stoichiometry N is commonly meant a count of units in the complex or per binding partner. The molecule “BK polyomavirus major capsid protein VP1 (VP1-only virus-like particle) (from UniProt P03088 1-362) (natural protein)” returned a stoichiometry N in series [1] of 5.

B1: BK polyomavirus minor capsid protein VP2 (natural protein)
chain: MGAALALLGDLVASVSEAAAATGFSVAEIAAGEAAAAIEVQIASLATVEGITSTSEAIAAIGLTPQTYAVIAGAPGAIAGFAALIQTVSGISSLAQVGYRFFSDWDHKVSTVGLYQQSGMALELFNPDEYYDILFPGVNTFVNNIQYLDPRHWGPSLFATISQALWHVIRDDIPSITSQELQRRTERFFRDSLARFLEETTWTIVNAPINFYNYIQQYYSDLSPIRPSMVRQVAEREGTRVHFGHTYSIDDADSIEEVTQRMDLRNQQSVHSGEFIEKTIAPGGANQRTAPQWMLPLLLGLYGTVTPALEAYEDGPNQKKRRVSRGSSQKAKGTRASAKTTNKRRSRSSRS
notes: Minor capsid protein VP2 of BK polyomavirus, Dunlop strain; printed mass 38.3 kDa; same open reading frame as VP3, with an extended N terminus; The introduction says the extended N terminus of VP2 holds a site for myristoylation; also called VP2/3; VP2/VP3; source: Vero cells transfected/infected with the BK Dunlop genome; in purified virions (CsCl gradient, 1-MDa centrifugal concentrator)
For the molecule B1, the binding result in series [2] is “binds”.

B2: BK polyomavirus minor capsid protein VP3 (natural protein)
chain: MALELFNPDEYYDILFPGVNTFVNNIQYLDPRHWGPSLFATISQALWHVIRDDIPSITSQELQRRTERFFRDSLARFLEETTWTIVNAPINFYNYIQQYYSDLSPIRPSMVRQVAEREGTRVHFGHTYSIDDADSIEEVTQRMDLRNQQSVHSGEFIEKTIAPGGANQRTAPQWMLPLLLGLYGTVTPALEAYEDGPNQKKRRVSRGSSQKAKGTRASAKTTNKRRSRSSRS
notes: Minor capsid protein VP3 of BK polyomavirus, Dunlop strain; printed mass 26.7 kDa; expressed from the same open reading frame as VP2 but without VP2's extended N terminus; also called VP2/3; VP2/VP3; source: Vero cells transfected/infected with the BK Dunlop genome; in purified virions (CsCl gradient, 1-MDa centrifugal concentrator)
As for B2, the binding result in series [2] is “binds”. In the case of B3, the “stoichiometry N” value in series [3] is 5.

The values above are taken from publication PMC4826271, “New Structural Insights into the Genome and Minor Capsid Proteins of BK Polyomavirus using Cryo-Electron Microscopy” (Structure(London, England:1993), 2016).
